Measured values from patent publication US20090123480A1 (REGENTS OF THE UNIVERSITY OF MICHIGAN, published 2009).
Values belong to the molecule of their own block, whether it stands above or below them. Non-standard residues stand in square brackets, D forms with d. No end group written: not given here. *: point of attachment. 5FAM = O=C1OC2(c3ccc(O)cc3Oc3cc(O)ccc32)c2ccc(C(=O)*)cc21; Abu = CC[C@H](N)C(=O)O

Columns and labels:
[1] = target: human XIAP protein (residues 120-356) (human) (UniProt P98170); experiment: fluorescence polarization competition against the Smac2-F tracer
[2] = target: caspase-7 (UniProt P55210); experiment: cell-based or functional assay
[3] = target: caspase-3 (UniProt P42574); experiment: cell-based or functional assay
[4] = target: T1, recombinant XIAP BIR3 protein of human XIAP (residues 241-356) fused to His-tag (human, UniProt P98170 241-356); experiment: fluorescence polarization, direct binding of the labelled peptide
T1 construct: range 241-356; not shown: His-tag
T1 sequence (P98170 241-356 limits assumed): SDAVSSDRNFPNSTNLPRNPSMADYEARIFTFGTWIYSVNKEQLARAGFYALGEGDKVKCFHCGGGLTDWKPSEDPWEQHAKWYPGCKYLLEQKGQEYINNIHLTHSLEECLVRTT

Chain of human XIAP protein (residues 120-356) (human) (P98170 120-356 limits assumed): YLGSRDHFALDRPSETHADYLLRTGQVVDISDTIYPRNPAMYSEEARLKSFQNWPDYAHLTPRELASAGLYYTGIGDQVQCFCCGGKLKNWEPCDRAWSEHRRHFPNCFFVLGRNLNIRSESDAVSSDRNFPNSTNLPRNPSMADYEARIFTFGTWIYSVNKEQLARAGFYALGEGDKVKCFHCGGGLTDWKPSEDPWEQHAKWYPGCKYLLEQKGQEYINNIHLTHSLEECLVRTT
Chain of caspase-7 (P55210 24-303 limits assumed): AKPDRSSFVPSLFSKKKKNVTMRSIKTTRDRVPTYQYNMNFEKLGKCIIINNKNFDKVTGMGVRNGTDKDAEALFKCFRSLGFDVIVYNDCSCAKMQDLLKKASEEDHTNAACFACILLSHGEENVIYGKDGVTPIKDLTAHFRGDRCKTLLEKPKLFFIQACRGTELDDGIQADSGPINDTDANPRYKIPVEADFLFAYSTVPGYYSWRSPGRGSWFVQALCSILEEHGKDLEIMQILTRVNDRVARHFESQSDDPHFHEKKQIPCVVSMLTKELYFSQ
Chain of caspase-3 (P42574 29-277 limits assumed): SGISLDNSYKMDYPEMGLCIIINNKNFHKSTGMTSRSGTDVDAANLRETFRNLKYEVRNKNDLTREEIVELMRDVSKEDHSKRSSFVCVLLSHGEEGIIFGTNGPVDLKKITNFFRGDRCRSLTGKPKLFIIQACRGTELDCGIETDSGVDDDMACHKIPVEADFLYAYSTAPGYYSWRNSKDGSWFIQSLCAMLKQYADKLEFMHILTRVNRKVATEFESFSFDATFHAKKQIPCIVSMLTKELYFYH

fold less potent than the small molecule SH-164 (IC50 […] nM) in the competitive binding assay [1]: > 5000 fold
Molecule: natural Smac peptide AVPI (SEQ ID NO: 1)

inhibition of caspase-3/-7 activity, cell-free functional assay [2]: 50 nM | inhibition of caspase-3/-7 activity, cell-free functional assay [3]: 50 nM
Molecule: human XIAP protein (residues 120-356) (from UniProt P98170 120-356)

Kd [4]: 17.9 nM
B1: mutated Smac peptide AbuRPF-K-(5-Fam)-NH2 (termed SM5F) (peptide)
peptide: [Abu]RPFK(5FAM)-NH2
modifications: N-terminus assumed
SMILES: CC[C@H](N)C(=O)N[C@@H](CCCNC(=N)N)C(=O)N1CCC[C@H]1C(=O)N[C@@H](Cc1ccccc1)C(=O)N[C@@H](CCCCNC(=O)c1ccc2c(c1)C(=O)OC21c2ccc(O)cc2Oc2cc(O)ccc21)C(N)=O
notes: Fluorescent tracer of the XIAP BIR3 fluorescence polarization assay; also called SM5F peptide
